Data reported in patent US20230038638A1, “COMPLEMENT FACTOR I-RELATED COMPOSITIONS AND METHODS” (published 2023).

Columns and labels:
human C4b (human) [1] = molecular target: T1, human C4b (human) (UniProt P0C0L4)
T1 sequence: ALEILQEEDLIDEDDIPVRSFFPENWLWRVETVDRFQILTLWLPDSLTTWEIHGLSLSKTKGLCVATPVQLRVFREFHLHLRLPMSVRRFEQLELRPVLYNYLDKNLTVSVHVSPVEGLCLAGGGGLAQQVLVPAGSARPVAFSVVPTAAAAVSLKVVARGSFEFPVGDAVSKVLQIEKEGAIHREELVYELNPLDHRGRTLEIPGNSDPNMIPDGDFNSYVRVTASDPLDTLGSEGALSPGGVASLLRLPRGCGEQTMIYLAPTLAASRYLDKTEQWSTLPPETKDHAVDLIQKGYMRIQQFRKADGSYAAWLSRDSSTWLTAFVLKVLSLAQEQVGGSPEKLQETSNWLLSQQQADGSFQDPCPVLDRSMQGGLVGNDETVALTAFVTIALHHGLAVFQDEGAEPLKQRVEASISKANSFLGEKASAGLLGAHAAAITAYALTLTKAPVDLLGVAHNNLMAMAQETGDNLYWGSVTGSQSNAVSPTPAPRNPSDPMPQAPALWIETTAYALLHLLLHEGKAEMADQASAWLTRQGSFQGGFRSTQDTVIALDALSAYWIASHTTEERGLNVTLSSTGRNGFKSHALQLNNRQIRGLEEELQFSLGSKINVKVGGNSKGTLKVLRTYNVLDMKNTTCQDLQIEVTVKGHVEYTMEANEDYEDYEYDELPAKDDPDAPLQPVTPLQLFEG

[2] = molecular target: soluble human C3b (human) (UniProt P01024)
human C4b (human) [3] = molecular target: T1, human C4b (human); remark: listed apart in the source
[4] = molecular target: soluble human C3b (human) (UniProt P01024); remark: listed apart in the source

| Substance | C4c EC50 (nM) (human C4b (human) [1]) | iC3b EC50 [2] [nM] | C4b Screen Ref Fold (fold of reference) (human C4b (human) [3]) | iC3b Screen Ref Fold (fold of reference) [4] | C4b Screen Ref Fold (fold of CFI-HSA wild type) (human C4b (human) [3]) | iC3b Screen Ref Fold (fold of CFI-HSA wild type) [4] | C4c EC50 (human C4b (human) [1]) [nM] |
| --- | --- | --- | --- | --- | --- | --- | --- |
| CFI-HSA variant E457Q (enzyme) | 395 | 19.8 | 1.8 | 1 | – | – | – |
| CFI-HSA variant E457R (enzyme) | 182 | 10.5 | 4.6 | 1.42 | – | – | – |
| CFI-HSA variant E457S (enzyme) | 428 | 21.3 | 0.81 | 1.07 | – | – | – |
| CFI-HSA variant E457T (enzyme) | > 1000 | 10.4 | 1.34 | 1.5 | – | – | – |
| CFI-HSA variant E457V (enzyme) | 567 | 40.6 | 0.99 | 0.8 | – | – | – |
| CFI-HSA variant E457W (enzyme) | > 1000 | 110 | 0.09 | 0.15 | – | – | – |
| CFI-HSA variant E457Y (enzyme) | > 1000 | 90.6 | 0.12 | 0.03 | – | – | – |
| CFI-HSA variant E461H (enzyme) | 134 | 11.7 | 3.16 | 1.3 | – | – | – |
| CFI-HSA variant E461I (enzyme) | 100 | 9.8 | 3.83 | 1.44 | – | – | – |
| CFI-HSA variant E461L (enzyme) | 87.5 | 7.3 | 4.22 | 1.71 | – | – | – |
| CFI-HSA variant E461M (enzyme) | 148 | 6.9 | 1.9 | 2.12 | – | – | – |
| CFI-HSA variant E461V (enzyme) | 64.4 | 8.9 | 4.79 | 2.03 | – | – | – |
| CFI-HSA variant E530F; E457G; E461Q; N531G (enzyme) | 9.1 | 2.9 | – | – | 4.17 | 2.48 | – |
| CFI-HSA variant E530R (enzyme) | – | 14.7 | 0.76 | 0.8 | – | – | > 1000 |
| CFI-HSA variant G406A (enzyme) | 176 | 42.6 | 1.96 | 0.36 | – | – | – |
| CFI-HSA variant G406D (enzyme) | > 1000 | 151 | 0.33 | 0.12 | – | – | – |
| CFI-HSA variant G406D; Y408L (enzyme) | – | 78.2 | 0.15 | -0.02 | – | – | > 1000 |
| CFI-HSA variant G406E (enzyme) | > 1000 | 116 | 0.88 | 0.13 | – | – | – |
| CFI-HSA variant G406F (enzyme) | – | 37.2 | 0.72 | 0.73 | – | – | > 1000 |
| CFI-HSA variant G406H (enzyme) | – | 20.4 | 1.17 | 0.6 | – | – | 197 |

| Substance | C4c EC50 (nM) (human C4b (human) [1]) | iC3b EC50 [2] [nM] | C4b Screen Ref Fold (fold of reference) (human C4b (human) [3]) | iC3b Screen Ref Fold (fold of reference) [4] | C4b Screen Ref Fold (fold of CFI-HSA wild type) (human C4b (human) [3]) | iC3b Screen Ref Fold (fold of CFI-HSA wild type) [4] | C4c EC50 (human C4b (human) [1]) [nM] |
| --- | --- | --- | --- | --- | --- | --- | --- |
| CFI-HSA variant G406I (enzyme) | – | 54.4 | 0.97 | 0.4 | – | – | > 1000 |
| CFI-HSA variant G406L (enzyme) | – | 31.9 | 0.92 | 0.82 | – | – | 386 |
| CFI-HSA variant G406M (enzyme) | – | 40.5 | 1.17 | 0.6 | – | – | > 1000 |
| CFI-HSA variant G406N (enzyme) | – | 35.2 | 0.94 | 0.59 | – | – | > 1000 |
| CFI-HSA variant G406P (enzyme) | – | 35.9 | 0.49 | 0.47 | – | – | > 1000 |
| CFI-HSA variant G406Q (enzyme) | – | 30.7 | 0.91 | 0.68 | – | – | > 1000 |
| CFI-HSA variant G406R (enzyme) | 474 | 19 | 1.31 | 1.31 | – | – | – |
| CFI-HSA variant G406S (enzyme) | – | 32.6 | 1.83 | 0.4 | – | – | 315 |
| CFI-HSA variant G406T (enzyme) | – | 52.4 | 1.09 | 0.52 | – | – | > 1000 |
| CFI-HSA variant G406V (enzyme) | – | 43.1 | 1.09 | 0.44 | – | – | > 1000 |
| CFI-HSA variant G406W (enzyme) | – | 65.5 | 1.57 | 0.38 | – | – | > 1000 |
| CFI-HSA variant G406Y (enzyme) | – | 14.9 | 0.43 | 0.39 | – | – | > 1000 |
| CFI-HSA variant K418G; D425G (enzyme) | – | 28.5 | 0.84 | 0.19 | – | – | 865 |
| CFI-HSA variant K504F (enzyme) | > 1000 | 77.5 | 0.29 | 0.13 | – | – | – |
| CFI-HSA variant K504I (enzyme) | > 1000 | 176 | 0.05 | 0.1 | – | – | – |
| CFI-HSA variant K504M (enzyme) | > 1000 | 43.8 | 0.14 | 0.52 | – | – | – |
| CFI-HSA variant K504N (enzyme) | > 1000 | 76.8 | 0.57 | 0.18 | – | – | – |
| CFI-HSA variant K504R; D425R; E457G; E461Q; N531G (enzyme) | 8.4 | 4.2 | – | – | 4.19 | 1.59 | – |
| CFI-HSA variant K504R; E457G; E461Q; N531G (enzyme) | 8.2 | 3 | – | – | 4.18 | 2.98 | – |
